In patent US20180155451A1 (published 2018):

T1: FcγRIIb extracellular domain with C-terminal His tag (human, UniProt P31994 43-217)
T1 construct: extracellular domain; Soluble receptor expressed in FreeStyle293 cells and used as analyte in Biacore; also called FcgRIIb; 2b; not shown: His tag at the C terminus
T1 sequence (looked up): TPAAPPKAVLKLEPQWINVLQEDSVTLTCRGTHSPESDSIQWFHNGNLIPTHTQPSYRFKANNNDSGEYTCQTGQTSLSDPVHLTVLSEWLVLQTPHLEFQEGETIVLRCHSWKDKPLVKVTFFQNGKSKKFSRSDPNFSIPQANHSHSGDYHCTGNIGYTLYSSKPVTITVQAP

T2: FcγRIIa H (human, UniProt P12318 34-217)
T2 construct: extracellular domain; Soluble His-tagged extracellular domain expressed in FreeStyle293 cells; also called FcγRIIa type H; FcgRIIa H; not shown: His tag attached to the C terminus
T2 sequence (looked up): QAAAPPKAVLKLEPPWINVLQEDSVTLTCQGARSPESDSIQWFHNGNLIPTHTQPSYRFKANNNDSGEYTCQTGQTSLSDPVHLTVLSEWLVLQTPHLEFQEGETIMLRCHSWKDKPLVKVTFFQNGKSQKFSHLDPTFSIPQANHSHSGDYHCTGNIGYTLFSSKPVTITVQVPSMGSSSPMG

T3: FcγRIIb (human, UniProt P31994 43-217)
T3 construct: extracellular domain; Soluble His-tagged extracellular domain expressed in FreeStyle293 cells; also called FcgRIIb; 2b; not shown: His tag attached to the C terminus
T3 sequence (looked up): T1 sequence (looked up)

B1: heterodimerized antibody GpH7-A5/GpH7-B3 variant Y296_01G/GpL16-k0 (antibody, human IgG1, kappa)
heavy 1: not shown
heavy 2: not shown
light: DIVMTQSPLSLPVTPGEPASISCQASESLVHSNRNTYLHWYLQKPGQSPQLLIYKVSNRFSGVPDRFSGSGSGTDFTLKISRVEAEDVGVYYCSQNTHVPPTFGQGTKVEIERTVAAPSVFIFPPSDEQLKSGTASVVCLLNNFYPREAKVQWKVDNALQSGNSQESVTEQDSKDSTYSLSSTLTLSKADYEKHKVYACEVTHQGLSSPVTKSFNRGEC
notes: Substitution in only one H chain (GpH7-B3 side); also called He Ab
B2: heterodimerized antibody GpH7-A5/GpH7-B3 variant Y296_11K/GpL16-k0 (antibody, human IgG1, kappa)
heavy 1: not shown
heavy 2: not shown
light: B1 light
notes: as for B1
B3: heterodimerized antibody GpH7-A5/GpH7-B3 variant S298_02A/GpL16-k0 (antibody, human IgG1, kappa)
heavy 1: not shown
heavy 2: not shown
light: B1 light
notes: as for B1
B4: heterodimerized antibody GpH7-A5/GpH7-B3 variant Q295_18N/GpL16-k0 (antibody, human IgG1, kappa)
heavy 1: not shown
heavy 2: not shown
light: B1 light
notes: as for B1
B5: heterodimerized antibody GpH7-A5/GpH7-B3 variant Y296_03V/GpL16-k0 (antibody, human IgG1, kappa)
heavy 1: not shown
heavy 2: not shown
light: B1 light
notes: as for B1
B6: heterodimerized antibody GpH7-A5/GpH7-B3 variant S298_04F/GpL16-k0 (antibody, human IgG1, kappa)
heavy 1: not shown
heavy 2: not shown
light: B1 light
notes: as for B1
B7: heterodimerized antibody GpH7-A5/GpH7-B3 variant Q295_20W/GpL16-k0 (antibody, human IgG1, kappa)
heavy 1: not shown
heavy 2: not shown
light: B1 light
notes: as for B1
B8: heterodimerized antibody GpH7-A5/GpH7-B3 variant Y296_07I/GpL16-k0 (antibody, human IgG1, kappa)
heavy 1: not shown
heavy 2: not shown
light: B1 light
notes: as for B1
B9: heterodimerized antibody GpH7-A5/GpH7-B3 variant S298_01G/GpL16-k0 (antibody, human IgG1, kappa)
heavy 1: not shown
heavy 2: not shown
light: B1 light
notes: as for B1
B10: heterodimerized antibody GpH7-A5/GpH7-B3 variant Y296_08L/GpL16-k0 (antibody, human IgG1, kappa)
heavy 1: not shown
heavy 2: not shown
light: B1 light
notes: as for B1
B11: heterodimerized antibody GpH7-A5/GpH7-B3 variant S298_05P/GpL16-k0 (antibody, human IgG1, kappa)
heavy 1: not shown
heavy 2: not shown
light: B1 light
notes: as for B1
B12: heterodimerized antibody GpH7-A5/GpH7-B3 variant Y296_05P/GpL16-k0 (antibody, human IgG1, kappa)
heavy 1: not shown
heavy 2: not shown
light: B1 light
notes: as for B1
B13: heterodimerized antibody GpH7-A5/GpH7-B3 variant S298_07I/GpL16-k0 (antibody, human IgG1, kappa)
heavy 1: not shown
heavy 2: not shown
light: B1 light
notes: as for B1
B14: heterodimerized antibody GpH7-A5/GpH7-B3 variant S298_03V/GpL16-k0 (antibody, human IgG1, kappa)
heavy 1: not shown
heavy 2: not shown
light: B1 light
notes: as for B1
B15: heterodimerized antibody GpH7-A5/GpH7-B3 variant Y296_02A/GpL16-k0 (antibody, human IgG1, kappa)
heavy 1: not shown
heavy 2: not shown
light: B1 light
notes: as for B1
B16: heterodimerized antibody GpH7-A5/GpH7-B3 variant Q295_16H/GpL16-k0 (antibody, human IgG1, kappa)
heavy 1: not shown
heavy 2: not shown
light: B1 light
notes: as for B1
B17: GpH7-A5/GpH7-B3 variant N325_08L/GpL16-k0 (antibody, human IgG1, kappa)
heavy 1: not shown
heavy 2: not shown
light: B1 light
notes: Heterodimerized anti-glypican-3 IgG1; mutation in the GpH7-B3 H chain only; also called He Ab

Molecular target: T4, FcγRIa extracellular domain with C-terminal His tag (human, UniProt P12314 16-292)
T4 construct: extracellular domain; Soluble receptor expressed in FreeStyle293 cells and used as analyte in Biacore; also called FcgRI; 1a; not shown: His tag at the C terminus
T4 sequence (P12314 16-292): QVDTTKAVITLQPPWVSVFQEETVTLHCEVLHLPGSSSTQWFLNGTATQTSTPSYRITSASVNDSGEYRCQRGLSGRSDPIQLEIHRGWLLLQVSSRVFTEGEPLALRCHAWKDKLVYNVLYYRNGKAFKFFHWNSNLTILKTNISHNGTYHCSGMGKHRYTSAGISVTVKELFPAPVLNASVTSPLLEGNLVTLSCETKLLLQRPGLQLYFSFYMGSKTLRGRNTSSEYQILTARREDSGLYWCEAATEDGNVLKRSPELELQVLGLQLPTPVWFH
Experiment: SPR Biacore, relative binding amount

He/Con_1a | Binder
103 % of GpH7-A5/GpH7-B3/GpL16-k0 (=100) | B1
105 % of GpH7-A5/GpH7-B3/GpL16-k0 (=100) | B2
107 % of GpH7-A5/GpH7-B3/GpL16-k0 (=100) | B3
102 % of GpH7-A5/GpH7-B3/GpL16-k0 (=100) | B4
104 % of GpH7-A5/GpH7-B3/GpL16-k0 (=100) | B5
109 % of GpH7-A5/GpH7-B3/GpL16-k0 (=100) | B6
93.7 % of GpH7-A5/GpH7-B3/GpL16-k0 (=100) | B7
104 % of GpH7-A5/GpH7-B3/GpL16-k0 (=100) | B8
104 % of GpH7-A5/GpH7-B3/GpL16-k0 (=100) | B9
104 % of GpH7-A5/GpH7-B3/GpL16-k0 (=100) | B10
91.6 % of GpH7-A5/GpH7-B3/GpL16-k0 (=100) | B11
95.6 % of GpH7-A5/GpH7-B3/GpL16-k0 (=100) | B12
107 % of GpH7-A5/GpH7-B3/GpL16-k0 (=100) | B13
110 % of GpH7-A5/GpH7-B3/GpL16-k0 (=100) | B14
103 % of GpH7-A5/GpH7-B3/GpL16-k0 (=100) | B15
102 % of GpH7-A5/GpH7-B3/GpL16-k0 (=100) | B16

Molecular target: T1, FcγRIIb extracellular domain with …
Experiment: SPR Biacore, relative binding amount

He/Con_2b | Binder
79.3 % of GpH7-A5/GpH7-B3/GpL16-k0 (=100) | B1
72.8 % of GpH7-A5/GpH7-B3/GpL16-k0 (=100) | B2
73.4 % of GpH7-A5/GpH7-B3/GpL16-k0 (=100) | B3
64.9 % of GpH7-A5/GpH7-B3/GpL16-k0 (=100) | B4
79.3 % of GpH7-A5/GpH7-B3/GpL16-k0 (=100) | B5
65.4 % of GpH7-A5/GpH7-B3/GpL16-k0 (=100) | B6
44.4 % of GpH7-A5/GpH7-B3/GpL16-k0 (=100) | B7
84.3 % of GpH7-A5/GpH7-B3/GpL16-k0 (=100) | B8
80.1 % of GpH7-A5/GpH7-B3/GpL16-k0 (=100) | B9
82.3 % of GpH7-A5/GpH7-B3/GpL16-k0 (=100) | B10
11.9 % of GpH7-A5/GpH7-B3/GpL16-k0 (=100) | B11
36.6 % of GpH7-A5/GpH7-B3/GpL16-k0 (=100) | B12
70.6 % of GpH7-A5/GpH7-B3/GpL16-k0 (=100) | B13
64.5 % of GpH7-A5/GpH7-B3/GpL16-k0 (=100) | B14
82 % of GpH7-A5/GpH7-B3/GpL16-k0 (=100) | B15
62.7 % of GpH7-A5/GpH7-B3/GpL16-k0 (=100) | B16

Molecular target: T4, FcγRIa extracellular domain with …
Experiment: SPR Biacore; relative binding to FcγRIa divided by that to FcγRIIb

Ia/IIb He_1a/2b | Binder
1.29 ratio of He/Con_1a to He/Con_2b | B1
1.44 ratio of He/Con_1a to He/Con_2b | B2
1.45 ratio of He/Con_1a to He/Con_2b | B3
1.58 ratio of He/Con_1a to He/Con_2b | B4
1.31 ratio of He/Con_1a to He/Con_2b | B5
1.67 ratio of He/Con_1a to He/Con_2b | B6
2.11 ratio of He/Con_1a to He/Con_2b | B7
1.24 ratio of He/Con_1a to He/Con_2b | B8
1.29 ratio of He/Con_1a to He/Con_2b | B9
1.26 ratio of He/Con_1a to He/Con_2b | B10
7.7 ratio of He/Con_1a to He/Con_2b | B11
2.61 ratio of He/Con_1a to He/Con_2b | B12
1.52 ratio of He/Con_1a to He/Con_2b | B13
1.7 ratio of He/Con_1a to He/Con_2b | B14
1.26 ratio of He/Con_1a to He/Con_2b | B15
1.64 ratio of He/Con_1a to He/Con_2b | B16

Molecular target: T2, FcγRIIa H
Experiment: SPR (Biacore); He/Con_2aH divided by He/Con_2b (FcγRIIb) of the same antibody

He_2aH/2b [ratio] | Binder
0.26 | B17

Molecular target: T2, FcγRIIa H
Experiment: SPR (Biacore), captured antibody, FcγR analyte; relative to GpH7-A5/GpH7-B3/GpL16-k0 = 100
Procedure: (§1) The heterodimerized antibodies He Abs in which one of the H chains was introduced with an alteration were assayed for their binding activities to each activating FcγR and inhibitory FcγR according to the method described in Example 4. […] The activating FcγRs in FIGS. 26, 27, 28, and 29 are FcγRIa, FcγRIIa (R), FcγRIIa (H), and FcγRIIIa, respectively.
(§2) Analysis of interaction between objective antibody and the FcγR was carried out using Biacore T100 (GE Healthcare). HBS-EP+ (GE Healthcare) was used as the running buffer, and the measurement temperature was set to 25° C. Chips produced by immobilizing the antigen peptide by the amine coupling method to a Series S Sencor Chip CM5 (GE Healthcare), or alternatively, chips produced by allowing preliminarily biotinylated antigen peptides to interact with and immobilize onto a Series S Sensor Chip SA (certified) (GE Healthcare) were used. Antibodies of interest were captured onto an antigen peptide-immobilized chip, and allowed to interact to each FcγR diluted with running buffer. To regenerate and repeatedly use the chip, the antibodies captured on the chip were washed off by reacting 10 mM glycine-HCl, pH 1.5.

He/Con_2aH | Binder
52 relative (control = 100) | B17

Molecular target: T3, FcγRIIb
Experiment: as above
Procedure: as §1, §2

He/Con_2b | Binder
197 relative (control = 100) | B17
